Source: patent US20250002593A1 (INMAGENE PTE, published 2025)

T1: membrane hIL-36R (human, UniProt Q9HB29 20-575)
T1 sequence: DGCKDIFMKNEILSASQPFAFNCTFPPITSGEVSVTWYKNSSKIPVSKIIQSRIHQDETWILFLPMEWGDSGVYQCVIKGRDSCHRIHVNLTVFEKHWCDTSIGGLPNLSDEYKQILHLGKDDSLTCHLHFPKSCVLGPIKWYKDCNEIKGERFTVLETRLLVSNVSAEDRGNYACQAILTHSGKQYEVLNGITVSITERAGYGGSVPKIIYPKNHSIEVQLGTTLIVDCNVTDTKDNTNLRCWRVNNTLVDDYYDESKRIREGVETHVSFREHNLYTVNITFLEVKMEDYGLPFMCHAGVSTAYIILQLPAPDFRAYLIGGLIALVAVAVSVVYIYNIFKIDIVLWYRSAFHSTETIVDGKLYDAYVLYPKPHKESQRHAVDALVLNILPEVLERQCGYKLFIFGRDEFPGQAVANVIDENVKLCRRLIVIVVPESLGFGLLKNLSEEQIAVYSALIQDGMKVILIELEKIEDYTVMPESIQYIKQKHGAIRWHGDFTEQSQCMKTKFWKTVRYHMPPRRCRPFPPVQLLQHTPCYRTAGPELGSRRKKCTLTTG

T2: Recombinant hIL-36R protein (Acrobio, Cat #IL2-H52H6) (human, UniProt Q9HB29 20-335)
T2 construct: Bought soluble protein; also called recombinant human IL-36R protein
T2 sequence: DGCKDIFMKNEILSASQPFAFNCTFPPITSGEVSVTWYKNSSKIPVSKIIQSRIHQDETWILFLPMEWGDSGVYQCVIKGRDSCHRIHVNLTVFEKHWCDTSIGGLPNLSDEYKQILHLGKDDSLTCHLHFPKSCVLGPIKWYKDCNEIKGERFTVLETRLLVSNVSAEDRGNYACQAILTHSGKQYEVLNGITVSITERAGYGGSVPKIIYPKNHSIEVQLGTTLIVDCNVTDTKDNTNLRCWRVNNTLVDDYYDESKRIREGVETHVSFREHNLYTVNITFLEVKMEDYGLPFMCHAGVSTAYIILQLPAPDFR

T3: recombinant hIL-36R-his (human, UniProt Q9HB29 20-337)
T3 construct: Residues 1-337 (extracellular domain) are stated for the IL-36R-his used as immunogen; The range includes the signal peptide; no cleavage site is stated; also called recombinant hIL36R protein; recombinant human IL-36R-his protein; not shown: His tag
T3 sequence: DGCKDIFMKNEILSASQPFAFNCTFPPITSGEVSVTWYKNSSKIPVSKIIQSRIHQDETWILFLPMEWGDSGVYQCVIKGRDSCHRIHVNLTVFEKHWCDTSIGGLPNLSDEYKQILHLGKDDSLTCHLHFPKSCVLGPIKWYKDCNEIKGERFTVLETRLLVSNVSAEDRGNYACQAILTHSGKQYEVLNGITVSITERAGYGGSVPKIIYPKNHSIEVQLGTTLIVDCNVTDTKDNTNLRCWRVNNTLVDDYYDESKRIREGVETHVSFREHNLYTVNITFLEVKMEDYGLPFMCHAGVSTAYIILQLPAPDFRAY

T4: Recombinant hIL1R1 protein (human, UniProt P14778 18-332, limits assumed)
T4 sequence (looked up): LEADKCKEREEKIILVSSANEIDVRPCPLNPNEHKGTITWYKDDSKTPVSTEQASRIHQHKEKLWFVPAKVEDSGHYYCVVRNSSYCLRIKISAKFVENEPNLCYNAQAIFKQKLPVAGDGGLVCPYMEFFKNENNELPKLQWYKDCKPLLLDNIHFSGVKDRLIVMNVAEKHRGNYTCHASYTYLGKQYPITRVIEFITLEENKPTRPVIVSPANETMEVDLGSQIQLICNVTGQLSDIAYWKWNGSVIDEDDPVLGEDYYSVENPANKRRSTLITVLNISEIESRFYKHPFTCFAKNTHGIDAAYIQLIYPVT


Experiments:
membrane hIL-36R [1] = molecular target: T1, membrane hIL-36R; test: cell-based or functional assay
membrane hIL-36R [2] = molecular target: T1, membrane hIL-36R; test: cell-based or functional assay; remark: listed apart in the source
[3] = molecular target: T2, Recombinant hIL-36R protein (Acrobio, …); test: SPR (Biacore T200, 25 C), antibody captured by Fc, hIL-36R analyte
Protocol: To evaluate binding affinity of antibodies to hIL-36R, the binding affinity of antibodies were tested by surface plasmon resonance (SPR) technology with Biacore T200. The assay was performed at 25° C. and the running buffer was HBS-EP+. Diluted antibodies were captured on the sensor chip through Fc capture method.

membrane hIL-36R [4] = molecular target: T1, membrane hIL-36R; test: cell-based or functional assay; remark: listed apart in the source
membrane hIL-36R [5] = molecular target: T1, membrane hIL-36R; test: cell-based or functional assay; remark: listed apart in the source
membrane hIL-36R [6] = molecular target: T1, membrane hIL-36R; test: cell-based or functional assay; remark: listed apart in the source
recombinant hIL-36R-his = molecular target: T3, recombinant hIL-36R-his; test: ELISA on coated recombinant hIL36R protein (1 µg/ml), detection with HRP anti-hIgG; unit taken from the x axis Ab(µg/mL)
Protocol: Recombinant hIL36R protein was coated at a concentration of 1 μg/ml 100 ul per well in ELISA plate overnight. After wash, the plate was blocked with PBS containing 1% BSA+1% normal goat serum+0.05% Tween20. After that, 100 ul serially diluted antibodies were added into the plate and incubated for 1 h. The specific binding to hIL36R of antibodies was detected by HRP linked anti-hIgG antibody.

membrane hIL-36R [7] = molecular target: T1, membrane hIL-36R; test: cell-based or functional assay; remark: listed apart in the source
membrane hIL-36R [8] = molecular target: T1, membrane hIL-36R; test: cell-based or functional assay; remark: listed apart in the source
membrane hIL-36R [9] = molecular target: T1, membrane hIL-36R; test: flow cytometry on HEK293 cells transfected with pcDNA3.1-hIL36R, FITC anti-hIgG, MFI (median); unit taken from the x axis
Protocol: After 48 h, the transfected cells were subjected to FACS analysis for anti-IL-36R antibodies binding. Cells were collected and seeded into 96 well plate at a concentration of 100000 cells/50 ul/well. 50 ul serially diluted antibodies were added to the cells and incubate at 4° C. for 1 h. After that, cells were washed twice with PBS and 100 ul diluted secondary antibody (FITC labeled anti-hIgG) was added into the cells and incubated at 4° C. for 30 min. After incubation, cells were washed twice with PBS and analyzed by flow cytometry.

[10] = molecular target: T4, Recombinant hIL1R1 protein; test: ELISA on coated recombinant hIL1R1 protein, detection with HRP anti-hIgG
Protocol: Then the plate was blocked with PBS containing 1% BSA+1% normal goat serum+0.05% Tween20. After that, 100 ul serially diluted antibodies were added into the plate and incubated for 1 h. The specific binding to hIL1R1 of antibodies was detected with HRP linked anti hIgG antibody.

membrane hIL-36R [11] = molecular target: T1, membrane hIL-36R; test: cell-based or functional assay; remark: listed apart in the source

Row | IC50, inhibition of IL-36α induced IL-8 release in A431 cells (IL-8 ELISA, OD450) [panel IL-36α] (membrane hIL-36R [1]) | IC50, inhibition of IL-36β induced IL-8 release in A431 cells (IL-8 ELISA, OD450) [panel IL-36β] (membrane hIL-36R [1]) | IC50, inhibition of IL-36γ induced IL-8 release in A431 cells (IL-8 ELISA, OD450) [panel IL-36γ] (membrane hIL-36R [1]) | IC50, inhibition of IL-36γ induced IL-6 release in primary human epithelial keratinocytes (HEK cells) [panel IL-6] (membrane hIL-36R [2]) | IC50, inhibition of IL-36γ induced IL-8 release in primary human epithelial keratinocytes (HEK cells) [panel IL-8] (membrane hIL-36R [2]) | IC50, inhibition of IL-36γ induced TNF-α release in primary human epithelial keratinocytes (HEK cells) [panel TNF-α] (membrane hIL-36R [2]) | Kd [3] | koff [3] | kon [3] | IC50, inhibition of IL-36α induced IL-6 release in primary human epithelial keratinocytes (HEK cells) [panel IL-6] (membrane hIL-36R [5]) | IC50, inhibition of IL-36α induced IL-8 release in primary human epithelial keratinocytes (HEK cells) [panel IL-8] (membrane hIL-36R [5]) | IC50, inhibition of IL-36α induced TNF-α release in primary human epithelial keratinocytes (HEK cells) [panel TNF-α] (membrane hIL-36R [5]) | IC50, inhibition of IL-36β induced IL-6 release in primary human epithelial keratinocytes (HEK cells) [panel IL-6] (membrane hIL-36R [6]) | IC50, inhibition of IL-36β induced IL-8 release in primary human epithelial keratinocytes (HEK cells) [panel IL-8] (membrane hIL-36R [6]) | IC50, inhibition of IL-36β induced TNF-α release in primary human epithelial keratinocytes (HEK cells) [panel TNF-α] (membrane hIL-36R [6]) | EC50 (recombinant hIL-36R-his) | IC50, inhibition of IL-36α induced IL-8 release in primary human dermal fibroblast (HDF) cells (IL-8 ELISA, OD450) (membrane hIL-36R [8]) | EC50 (membrane hIL-36R [9]) | binding result [10] | Binder | also measured
1 | 2.29 µg/mL | 1.02 µg/mL | 0.0627 µg/mL | 0.148 µg/mL | 0.114 µg/mL | 0.0347 µg/mL | 3.74 nM | 0.000283 s⁻¹ | 75600 M⁻¹ s⁻¹ | 1.73 µg/mL | 1.47 µg/mL | 0.353 µg/mL | 0.0225 µg/mL | 0.253 µg/mL | 0.0298 µg/mL | 0.0106 µg/mL | 0.0877 µg/mL | 0.0582 µg/mL | no binding (tested: 1 µg/mL) | REGN14 (antibody, V domains shown, also called benchmark antibody) VH: EVQLVESGGDLVQPGRSLRLSCAASGFTFDDYAMHWVRQAPGKGLEWVSVISWNSDVIAYSDSVKGRFTISRDNAKNSLYLQMNSLRTEDTALYYCTKGHKWSFFDYWGQGTLVTVSS VL: EIVLTQSPATLSLSPGERATLSCRASQSISSYLAWYQQKPGQAPRLLIFNVANRATDIPARFSGSGSGTDFTLTISSLEPEDFAVYYCQQRSNWPLTFGGGTKVEIK | IC50, IL-36R reporter assay: inhibition of ligand induced luminescence in Jurkat-IL36R-IL1Racp-NFkB-luc cells (printed REGN-14) (membrane hIL-36R [4]): 0.169 µg/mL; IC50, IL-36R reporter assay: inhibition of IL-36α induced luminescence in Jurkat-IL36R-IL1Racp-NFkB-luc cells (printed REGN-14) (membrane hIL-36R [7]): 0.0839 nM
2 | 1.58 µg/mL | 0.496 µg/mL | 0.0474 µg/mL | 0.159 µg/mL | 0.187 µg/mL | 0.0726 µg/mL | 13.2 nM | 0.000444 s⁻¹ | 33500 M⁻¹ s⁻¹ | 1.35 µg/mL | 1.15 µg/mL | 0.266 µg/mL | 0.094 µg/mL | 0.35 µg/mL | 0.0577 µg/mL | 0.0228 µg/mL | 0.106 µg/mL | 0.119 µg/mL | no binding (tested: 1 µg/mL) | ANB019 (antibody, V domains shown, also called benchmark antibody) VH: QVQLVQSGAEVKKPGASVKVSCKASGYTFTNYWMNWVRQAPRQGLEWMGMFHPTGDVTRLNQKFKDRVTMTRDTSTSTVYMELSSLRSEDTAVYYCARTTSMIIGGFAYWGQGTLVTVSS VL: DIVMTQTPLSLSVTPGQPASISCRSSKSLLHRNAITYFYWYLHKPGQPPQLLIYQMSNLASGVPDRFSGSGSGTDFTLKISRVEAEDVGVYYCAQNLELPLTFGGGTKVEIK | IC50, IL-36R reporter assay: inhibition of ligand induced luminescence in Jurkat-IL36R-IL1Racp-NFkB-luc cells (membrane hIL-36R [11]): 0.0324 µg/mL
